Values quoted from earlier work in patent US20200069786A1, “COMPOSITION AND PROCESS FOR PREPARING VACCINE” (TREOS BIO ZRT., priority 2018, published 2020).
Like-named read-outs stand apart in the source and are kept apart here.

Tested on: TSA

B1: MCAK (protein, UniProt Q99661 2-725, looked up)
Kinesin-like protein KIF2C: AMDSSLQARLFPGLAIKIQRSNGLIHSANVRTVNLEKSCVSVEWAEGGATKGKEIDFDDVAAINPELLQLLPLHPKDNLPLQENVTIQKQKRRSVNSKIPAPKESLRSRSTRMSTVSELRITAQENDMEVELPAAANSRKQFSVPPAPTRPSCPAVAEIPLRMVSEEMEEQVHSIRGSSSANPVNSVRRKSCLVKEVEKMKNKREEKKAQNSEMRMKRAQEYDSSFPNWEFARMIKEFRATLECHPLTMTDPIEEHRICVCVRKRPLNKQELAKKEIDVISIPSKCLLLVHEPKLKVDLTKYLENQAFCFDFAFDETASNEVVYRFTARPLVQTIFEGGKATCFAYGQTGSGKTHTMGGDLSGKAQNASKGIYAMASRDVFLLKNQPCYRKLGLEVYVTFFEIYNGKLFDLLNKKAKLRVLEDGKQQVQVVGLQEHLVNSADDVIKMIDMGSACRTSGQTFANSNSSRSHACFQIILRAKGRMHGKFSLVDLAGNERGADTSSADRQTRMEGAEINKSLLALKECIRALGQNKAHTPFRESKLTQVLRDSFIGENSRTCMIATISPGISSCEYTLNTLRYADRVKELSPHSGPSGEQLIQMETEEMEACSNGALIPGNLSKEEEELSSQMSSFNEAMTQIRELEEKAMEELKEIIQQGPDWLELSEMTEQPDYDLETFVNKAESALAQQAKHFSALRDVIKALRLAMQLEEQASRQISSKKRPQ
In the case of B1, the “Expression Rate (ER) %” value (TSA expression rate in CRC) is given as 100%.

B2: TEX101 (protein, UniProt Q9BY14 26-222, looked up)
Testis-expressed protein 101: LYCQKGLSMTVEADPANMFNWTTEEVETCDKGALCQETILIIKAGTETAILATKGCIPEGEEAITIVQHSSPPGLIVTSYSNYCEDSFCNDKDSLSQFWEFSETTASTVSTTLHCPTCVALGTCFSAPSLPCPNGTTRCYQGKLEITGGGIESSVEVKGCTAMIGCRLMSGILAVGPMFVREACPHQLLTQPRKTEN
For B2, the “TSA Expression Rate (ER)” value (BREAST) is given as 0%.

B3: PAGE1 (protein, UniProt O75459 1-146, looked up)
P antigen family member 1: MGFLRRLIYRRRPMIYVESSEESSDEQPDEVESPTQSQDSTPAEEREDEGASAAQGQEPEADSQELVQPKTGCELGDGPDTKRVCLRNEEQMKLPAEGPEPEADSQEQVHPKTGCERGDGPDVQELGLPNPEEVKTPEEDEGQSQP
In the case of B3, the “Expression Rate (ER) %” value (TSA expression rate in CRC) is listed as 0%.

B4: SART3 (protein, UniProt Q15020 2-963, looked up)
Spliceosome associated factor …: ATAAETSASEPEAESKAGPKADGEEDEVKAARTRRKVLSRAVAAATYKTMGPAWDQQEEGVSESDGDEYAMASSAESSPGEYEWEYDEEEEKNQLEIERLEEQLSINVYDYNCHVDLIRLLRLEGELTKVRMARQKMSEIFPLTEELWLEWLHDEISMAQDGLDREHVYDLFEKAVKDYICPNIWLEYGQYSVGGIGQKGGLEKVRSVFERALSSVGLHMTKGLALWEAYREFESAIVEAARLEKVHSLFRRQLAIPLYDMEATFAEYEEWSEDPIPESVIQNYNKALQQLEKYKPYEEALLQAEAPRLAEYQAYIDFEMKIGDPARIQLIFERALVENCLVPDLWIRYSQYLDRQLKVKDLVLSVHNRAIRNCPWTVALWSRYLLAMERHGVDHQVISVTFEKALNAGFIQATDYVEIWQAYLDYLRRRVDFKQDSSKELEELRAAFTRALEYLKQEVEERFNESGDPSCVIMQNWARIEARLCNNMQKARELWDSIMTRGNAKYANMWLEYYNLERAHGDTQHCRKALHRAVQCTSDYPEHVCEVLLTMERTEGSLEDWDIAVQKTETRLARVNEQRMKAAEKEAALVQQEEEKAEQRKRARAEKKALKKKKKIRGPEKRGADEDDEKEWGDDEEEQPSKRRRVENSIPAAGETQNVEVAAGPAGKCAAVDVEPPSKQKEKAASLKRDMPKVLHDSSKDSITVFVSNLPYSMQEPDTKLRPLFEACGEVVQIRPIFSNRGDFRGYCYVEFKEEKSALQALEMDRKSVEGRPMFVSPCVDKSKNPDFKVFRYSTSLEKHKLFISGLPFSCTKEELEEICKAHGTVKDLRLVTNRAGKPKGLAYVEYENESQASQAVMKMDGMTIKENIIKVAISNPPQRKVPEKPETRKAPGGPMLLPQTYGARGKGRTQLSLLPRALQRPSAAAPQAENGPAAAPAVAAPAATEAPKMSNADFAKLFLRK
In the case of B4, the “Expression Rate (ER) %” value (TSA expression rate in PEDIATRIC) is listed as 73%.

B5: TTK (protein, UniProt P33981 1-857, looked up)
Dual specificity protein …: MESEDLSGRELTIDSIMNKVRDIKNKFKNEDLTDELSLNKISADTTDNSGTVNQIMMMANNPEDWLSLLLKLEKNSVPLSDALLNKLIGRYSQAIEALPPDKYGQNESFARIQVRFAELKAIQEPDDARDYFQMARANCKKFAFVHISFAQFELSQGNVKKSKQLLQKAVERGAVPLEMLEIALRNLNLQKKQLLSEEEKKNLSASTVLTAQESFSGSLGHLQNRNNSCDSRGQTTKARFLYGENMPPQDAEIGYRNSLRQTNKTKQSCPFGRVPVNLLNSPDCDVKTDDSVVPCFMKRQTSRSECRDLVVPGSKPSGNDSCELRNLKSVQNSHFKEPLVSDEKSSELIITDSITLKNKTESSLLAKLEETKEYQEPEVPESNQKQWQSKRKSECINQNPAASSNHWQIPELARKVNTEQKHTTFEQPVFSVSKQSPPISTSKWFDPKSICKTPSSNTLDDYMSCFRTPVVKNDFPPACQLSTPYGQPACFQQQQHQILATPLQNLQVLASSSANECISVKGRIYSILKQIGSGGSSKVFQVLNEKKQIYAIKYVNLEEADNQTLDSYRNEIAYLNKLQQHSDKIIRLYDYEITDQYIYMVMECGNIDLNSWLKKKKSIDPWERKSYWKNMLEAVHTIHQHGIVHSDLKPANFLIVDGMLKLIDFGIANQMQPDTTSVVKDSQVGTVNYMPPEAIKDMSSSRENGKSKSKISPKSDVWSLGCILYYMTYGKTPFQQIINQISKLHAIIDPNHEIEFPDIPEKDLQDVLKCCLKRDPKQRISIPELLAHPYVQIQTHPVNQMAKGTTEEMKYVLGQLVGLNSPNSILKAAKTLYEHYSGGESHNSSSSKTFEKKRGKK
For B5, the “Expression Rate (ER) %” value (TSA expression rate in Esophageal) is given as 97%.
